According to patent US20220211860A1, “PEPTIDE DERIVATIVES AND CONJUGATES THEREOF FOR TREATING CANCER” (priority 2019, published 2022):
Where “and” joins values, the source holds several entries; their conditions need not be identical. Equal entries are not always repeated.

What was measured:
[1] = system: α-tubulin polymerisation; test: α-tubulin immunostaining in TNBC and normal breast cells; assay type: cell-based; conditions: normal breast cells, 1 µM, 18 h
Procedure: FIGS. 8A and 8B: The effect of MMAE and LD5-me-vc-PABC-MMAE (LM) on α-tubulin polymerization. (A) MDA-MB-231 (TNBC cell model) and normal breast cells (HMEC and MCF-10A) were treated with free MMAE and LM at 1 μM and PBS (control) followed by immunostaining of α-tubulin with primary and secondary antibodies. The α-tubulin signals were detected by LEICA SPE2 confocal LSM. (B) The α-tubulin signal intensity was measured by Fiji J software in normal breast cells (HMEC and MCF-10A) and MDA-MB-231. ****p<0.0001 is the significance in the signal intensity in each cell line treated with PBS and LM in comparison to MMAE-treated cells. ####p<0.0001 is the significance of the α-tubulin signal intensity in MDA-MB-231 cells treated with LM in comparison to MCF-10A and HMEC cells. […] Statistical analysis was made in Prism by two-way ANOVA followed by Tukey's multiple comparisons test. Error bars are standard deviations (STDV), n=8 (3 independent repeats).
The intracellular effects of MMAE on α-tubulin polymerisation were examined using α-tubulin immunostaining in TNBC cells (MDA-MB-231) and normal breast cells (MCF-10A and HMEC) treated with MMAE and MMAE conjugated with LD5 (LD5-mc-vc-PABC-MMAE). TNBC cells and normal breast cells were fixed after incubating with […] of MMAE and LD5-mc-vc-PABC-MMAE for 18 h along with PBS as a control. […]

[2] = system: female NOD/SCID mice; test: Phase II: repeat-dose MTD in mice; assay type: in vivo; conditions: for Body Weight: listed as LHRHD-(mc-vc-PABC)-MMAE, 10 mg/kg
Procedure: (§1) LD-5-(mc-vc-PABC)-MMAE (10 mg/kg; determined by the results by Phase I) was administered IV once weekly on days 1 and 8 to groups of 3 female NOD/SCID mice (23±3 g). […] Body weights were recorded pre-dose and on days 1, 4, 8, 12 and 15. The animals were observed and mortality noted daily after first compound administration for 15 days. Gross necropsy was performed on all animals without tissue collection.
(§2) Therefore, the MTD was not reached at this dose. With the corresponding ADCs bearing MMAE the MTD has been considerably lower.

[3] = Phase II: repeat-dose MTD in mice; assay type: in vivo; conditions: mouse, in vivo; female NOD/SCID mice, IV; MTD not reached at 10 mg/kg
Procedure: as §1, §2

[4] = system: MDA-MB-231; test: Receptor binding competitive assay (triptorelin pre-treatment, MTT); assay type: cell-based, human; conditions: MDA-MB-231 pre-treated with 100 µM of triptorelin (TRN) for 2 h
Procedure: FIGS. 5A and 5B: Receptor binding competitive assay. MDA-MB-231 was pre-treated with triptorelin (TRN) and LM (LD5-mc-vc-PABC-MMAE) then the MTT assay was performed. (A) The IC50 value (nM) was calculated by non-linear regression (curve fit) for PC-3 and MDA-MB-231 with and without pre-treatment with triptorelin. (B) The cell viability in TRN-LM was assessed in comparison to LM in MDA-MB-231 (TNBC cell line). The cytotoxic effects of LM is reversed after pre-treatment with triptorelin indicating a significant role of LHRH-Rs in the mechanism of action of LM. Two-way ANOVA was performed followed by Sidak's multiple comparisons test (***p<0.00001). Error bars are standard deviations (STDV), n=8 (3 independent repeats).
Receptor binding competitive assay was performed to examine the association of cytotoxicity with binding to LHRH-Rs. TNBC cells (MDA-MB-231) were pre-treated with 100 µM of triptorelin (TRN) for 2 h to block the LHRH-R. The significant cytotoxic effects of LD5-mc-vc-PABC-MMAE (LM) was reversed after pre-treatment with TRN (FIGS. 5A and 5B).

[5] = system: female NOD/SCID mice; test: Phase I: single-dose MTD in mice; assay type: in vivo; conditions: for Body Weight: individual animals
Procedure: LD5-(mc-vc-PABC)-MMAE was administered IV to groups of 3 female NOD/SCID mice (23±3 g). Animals received an initial dose of 3 mg/kg. If the animals survived for 72 hours, the dose for the next cohort was increased. If one or more animals died, the dose for the next cohort was decreased. The testing stopped when all animals survived at the upper bound, or when two or three dose levels had been tested or when the upper or lower bound had been reached. […] Body weights were recorded pre-dose and at 72 hours after treatment. The animals were observed and mortality noted daily after compound administration for 3 days. Gross necropsy was performed on all animals without tissue collection. […] No mortality and body weight changes were noted, signifying the dose level was tolerated (Tables 2 and 3). The dose at 10 mg/kg was then determined for the following repeat-dose MTD study (Phase II).

## CCNC(=O)[C@@H]1CCCN1C(=O)[C@H](CCCNC(=N)N)NC(=O)[C@H](CC(C)C)NC(=O)[C@@H](CCCCNC1CC(=O)N(CCCCCC(=O)N[C@H](C(=O)N[C@@H](CCCNC(N)=O)C(=O)Nc2ccc(COC(=O)N(C)[C@H](C(=O)N[C@H](C(=O)N(C)[C@@H]([C@@H](C)CC)[C@@H](CC(=O)N3CCC[C@H]3[C@H](OC)[C@@H](C)C(=O)N[C@H](C)[C@@H](O)c3ccccc3)OC)C(C)C)C(C)C)cc2)C(C)C)C1=O)NC(=O)[C@H](Cc1ccc(O)cc1)NC(=O)[C@H](CO)NC(=O)[C@H](Cc1c[nH]c2ccccc12)NC(=O)[C@H](Cc1c[nH]cn1)NC(=O)[C@@H]1CCC(=O)N1 (some centres unmarked) [LD5-mc-vc-PABC-MMAE]
[1]
  α-tubulin signal compared to MMAE treatment: significantly higher
[2]; 10 mg/kg IV, after first and second administrations on Day 1 and 8
  adverse effects (acute toxic symptoms, autonomic effects): No marked adverse effects
[2]; IV 10 mg/kg on days 1 and 8, Day 1
  Mortality (death/test): 0/3
[2]; IV 10 mg/kg on days 1 and 8, Day 1, individual animals
  Body Weight: 22 g (2×) and 21 g
[2]; IV 10 mg/kg on days 1 and 8, Day 2
  Mortality (death/test): 0/3
[2]; IV 10 mg/kg on days 1 and 8, Day 3
  Mortality (death/test): 0/3
[2]; IV 10 mg/kg on days 1 and 8, Day 4
  Mortality (death/test): 0/3
[2]; IV 10 mg/kg on days 1 and 8, Day 4, individual animals
  Body Weight: 23 g (2×) and 22 g
[2]; IV 10 mg/kg on days 1 and 8, Day 5
  Mortality (death/test): 0/3
[2]; IV 10 mg/kg on days 1 and 8, Day 6
  Mortality (death/test): 0/3
[2]; IV 10 mg/kg on days 1 and 8, Day 7
  Mortality (death/test): 0/3
[2]; IV 10 mg/kg on days 1 and 8, Day 8
  Mortality (death/test): 0/3
[2]; IV 10 mg/kg on days 1 and 8, Day 8, individual animals
  Body Weight: 23 g (2×) and 22 g
[2]; IV 10 mg/kg on days 1 and 8, Day 9
  Mortality (death/test): 0/3
[2]; IV 10 mg/kg on days 1 and 8, Day 10
  Mortality (death/test): 0/3
[2]; IV 10 mg/kg on days 1 and 8, Day 11
  Mortality (death/test): 0/3
[2]; IV 10 mg/kg on days 1 and 8, Day 12
  Mortality (death/test): 0/3
[2]; IV 10 mg/kg on days 1 and 8, Day 12, individual animals
  Body Weight: 24 g (2×) and 23 g
[2]; IV 10 mg/kg on days 1 and 8, Day 13
  Mortality (death/test): 0/3
[2]; IV 10 mg/kg on days 1 and 8, Day 14
  Mortality (death/test): 0/3
[2]; IV 10 mg/kg on days 1 and 8, Day 15
  Mortality (death/test): 0/3
[2]; IV 10 mg/kg on days 1 and 8, Day 15, individual animals
  Body Weight: 25 g (2×) and 24 g
[2]; both phases
  gross necropsy: No abnormality was found
[3]
  MTD: > 10 mg/kg
[4]
  cytotoxic effects after pre-treatment with triptorelin: reversed
[5]; 3 and 10 mg/kg IV, 15 minutes, 1 and 2 hours
  adverse effects (acute toxic symptoms, autonomic effects): No significant adverse effects
[5]; IV 3 mg/kg, 15 min
  Mortality (death/test): 0/3
[5]; IV 3 mg/kg, 1 hr
  Mortality (death/test): 0/3
[5]; IV 3 mg/kg, 2 hr
  Mortality (death/test): 0/3
[5]; IV 3 mg/kg, 24 hr
  Mortality (death/test): 0/3
[5]; IV 3 mg/kg, 48 hr
  Mortality (death/test): 0/3
[5]; IV 3 mg/kg, 72 hr
  Mortality (death/test): 0/3
  Body Weight: 21 g
[5]; IV 3 mg/kg, time 0 (pre-dose)
  Body Weight: 21 g
[5]; IV 10 mg/kg, 15 min
  Mortality (death/test): 0/3
[5]; IV 10 mg/kg, 1 hr
  Mortality (death/test): 0/3
[5]; IV 10 mg/kg, 2 hr
  Mortality (death/test): 0/3
[5]; IV 10 mg/kg, 24 hr
  Mortality (death/test): 0/3
[5]; IV 10 mg/kg, 48 hr
  Mortality (death/test): 0/3
[5]; IV 10 mg/kg, 72 hr
  Mortality (death/test): 0/3
[5]; IV 10 mg/kg, time 0 (pre-dose)
  Body Weight: 20 g
